Assay results taken from the supplement of paper PMC11780869.

Tested on: Bacillus subtilis
Assay: cleaved RNA product abundance (RNA/gDNA barcode ratio) relative to median wild-type variant (ratio to wild type); higher = more accumulation of the downstream cleavage product
Procedure: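 MPRA in B. subtilis. Mutagenized RNase Y cleavage-site regions (9% mutation rate) were inserted into a barcoded reporter mRNA (truncated aprE or tetM). Cells were grown in LB at 37°C to OD600 0.3. The cleaved RNA isoform was gel-purified and its barcodes counted; the RNA:gDNA barcode ratio was normalised to the median wild-type variant, and the median over barcodes is reported per variant. The printed sequence is the variable window only; the reporter flanks are not printed.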

[1] = experiment (reporter, strain, medium): exp 2b: truncated aprE reporter, strain BJT200, cleavage site: cggR-gapA (positions -7 to +36 mutated)
[2] = experiment (reporter, strain, medium): exp 4a: truncated aprE reporter, strain BJT201 with 2% xylose (RNase J1 expressed), cleavage site: cggR-gapA (positions -7 to +36 mutated)
[3] = experiment (reporter, strain, medium): exp 8a: truncated aprE reporter, strain BJT201 with 2% xylose (RNase J1 expressed), cleavage site: glnRA (positions -5 to +31 mutated)
[4] = experiment (reporter, strain, medium): exp 6: tetM reporter, strain 168, cleavage site: cggR-gapA (positions -7 to +36 mutated)

Sequence	cleaved RNA product abundance [1]	cleaved RNA product abundance [2]	cleaved RNA product abundance [3]	cleaved RNA product abundance [4]
ACAGACGAAGGAGCCGCAAATAAGTTATTAAGGCATGAATAATCCCTCAATATAAATATCTCTCACTTATTTAAA	0.0924	0.0954	–	–
ACAGACGAAGGAGCCGCACAGAAGTTATTAAGAGATGAATAATCCCTCAATATAAATTTCTCTCACTTATTTAAA	–	0.113	–	–
ACAGACGAAGGAGCCGCAAAGAAGTGATTAAGGGATGAATAATCCCGCAATATAAATATCTCTCACTTATTTAAA	–	0.124	–	–
ACAGACGAAGGAGCCGCAAAGAAGTGACTAAGGGATGAATAATCCCTCAATATAAATATCTCTCACTTATTTAAA	–	0.344	–	–
CGACATGTCCCGCTTCTTTCATTAATCCATTAGCAACTGTTTTGCTATATACATTTTCCTTTTAAGAGGAGGAAT	–	–	0.292	–
CGACATGTCCCGCTTCTTTCATTAATCCGTTAGCAACTGTTTTGTTATATACATTTACCTTTTAAGAGGAGGAAT	–	–	0.453	–
ACAGACGAAGGAGCCGCAAAGAAGTTTTTAAGGGATGAATAATCCCACAATATAAATATCTCTCACTTATTTAAA	–	0.251	–	–
CGACATGTCCCGCTTCTTTCATTAATACGTTAGCAACTGTTTTGCTATATCCATTTACCTTTTAAGAGGAGGAAT	–	–	0.193	–
ACAGACGAAGGAGCCGCATAGAAGTTATTAAGGGATAAATAATCCCTCAATATAAATATCTCTCACTTATTTAAA	1.03	0.861	–	–
ACAGACGAAGGAGCCGCAAAGAAGTTATTAAATGATGAATAATCCCTCAATATAAATATCTCTCACTTATTTAAA	0.0939	0.1	–	–
ACAGACGAAGGAGCCGCAAAGTAGTTATTAAGGGATGAATAATCCCTCAATGTAAATATCTCTCACTTATTTAAA	–	0.13	–	–
ACAGACGAAGGAGCCGCAAAGAAGTTATTAAGGGATGAATACTGCCTCAATATAAATATCTCTCACTTATTTAAA	0.112	–	–	–
ACAGACGAAGGAGCCGCAAAGAAGTAATAAAGGGATGAATAATCCCTCAATATAAATATCTCTCACTTATTTAAA	–	0.205	–	–
CGACATGTCCCGCTTCTTTCATTATTCCGTTAGCAAATGTTTTGCTATATACATTTACCTTTTAAGAGGAGGAAT	–	–	1.75	–
ACAGACGAAGGAGCCGCAAAGAAGTTATTAAGGGATAAATAATCCCTCCATATAAATATCTCTCACTTATTTAAA	0.26	0.234	–	–
ACAGACGAAGGAGCCGCAAAGAAGTTATTAAGGGATGAATAATTCCTCCATATAAATATCTCTCACTTATTTAAA	0.102	0.119	–	–
ACAGACGAAGGAGCCGCAAATAAGTTATTAAGGTATGAATAATCCCTCAATATAAATTTCTCTCACTTATTTAAA	–	0.159	–	–
ACAGACGAAGGAGCCGCAAAGAAGTTATTAAGGGTTGAATAATCCCTCAATATAAATATCTCTCACTTATTTAAA	0.396	0.483	–	0.439
CGACATGTCCCGCTTCTTTCATTAATCCGTAAGCAACTGTTTTGCTATATACATTTAACTTTTAAGAGGAGGAAT	–	–	0.79	–
ACAGACGAAGGAGCCGCAAAGAAGTTAGTAAGGGAGGAATAATCCCTCAATATAAATATCTCTCACTTATTTAAA	0.123	0.199	–	–
CGACATGTCCCGCTTCTTTCATTAATCCGTAAGCAACTGTTTTGATATATACATTTACCTTTTAAGAGGAGGAAT	–	–	0.329	–
ACAGACGAAGGAGCCGCAAAGAAGTGAATAAGGGATGAATAATCCCTCAATATAAATATCTCTCACTTATTTAAA	–	0.296	–	–
ACAGACGAAGGAGCCGCAAGGAAGTTATTAAGGGATGAATAATCCCTCAATATAAATATCTCTCACTTATTTAAA	0.954	0.863	–	1.21
ACAGACGAAGGAGCCGCAAAGAAGTTATTAAGGGATGCATAATTCCTCAATATAAATATCTCTCACTTATTTAAA	–	0.559	–	–
CGACATGTCCCGCTTCTTTCATTAATCCGTTAGCAACTGTATTGCTATATACATTTACCTTTTAAGAGGAGGAAT	–	–	0.943	–
ACAGACGAAGGAGCCGCATAGAAGTTATTAAGGGATCAATAATCCCTCAATATAAATATCTCTCACTTATTTAAA	–	1.04	–	–
ACAGACGAAGGAGCCGCAAAGAAGTTATTAAGGGAGAATAATCCCTCAATATAAATATCTCTCACTTATTTAAAG	–	0.471	–	–
ACAGACGAAGGAGCCGCAAAGAAGTTCTTAAGGGATGAATAATCTCTCAATATAAATATCTCTCACTTATTTAAA	–	0.199	–	–
ACAGACGAAGGAGCCGCAGAGAAGTTATCAAGGGATGAATAATCCCTCAATATAAATATCTCTCACTTATTTAAA	–	0.328	–	–
ACAGACGAAGGAGCCGCAAAGAAGTTATTAAGGGATGAATCATCCCTCAATATAAATATCTCTCACTTATTTAAA	0.721	0.902	–	0.917
